In patent US20180142032A1 (Sanofi, published 2018):

T1: mLAMP1::histag (mouse, UniProt P11438 25-369)
T1 construct: also called mouse LAMP1 (25-369); Mouse LAMP1
T1 sequence: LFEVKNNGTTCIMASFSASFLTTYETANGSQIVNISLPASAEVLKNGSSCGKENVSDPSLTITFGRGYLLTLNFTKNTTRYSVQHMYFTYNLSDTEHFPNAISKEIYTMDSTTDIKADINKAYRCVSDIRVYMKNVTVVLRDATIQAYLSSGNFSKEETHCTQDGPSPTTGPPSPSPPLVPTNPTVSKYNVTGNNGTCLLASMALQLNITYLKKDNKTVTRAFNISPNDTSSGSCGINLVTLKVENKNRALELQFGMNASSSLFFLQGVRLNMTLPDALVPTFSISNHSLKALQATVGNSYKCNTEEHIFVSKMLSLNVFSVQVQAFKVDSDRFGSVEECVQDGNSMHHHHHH

T2: LAMP1::histag (human, UniProt P11279 29-382)
T2 construct: extracellular domain without signal peptide, C-terminal 6 His tag, made in HEK293 cells; also called recombinant human LAMP1; human LAMP1 (29-382)
T2 sequence: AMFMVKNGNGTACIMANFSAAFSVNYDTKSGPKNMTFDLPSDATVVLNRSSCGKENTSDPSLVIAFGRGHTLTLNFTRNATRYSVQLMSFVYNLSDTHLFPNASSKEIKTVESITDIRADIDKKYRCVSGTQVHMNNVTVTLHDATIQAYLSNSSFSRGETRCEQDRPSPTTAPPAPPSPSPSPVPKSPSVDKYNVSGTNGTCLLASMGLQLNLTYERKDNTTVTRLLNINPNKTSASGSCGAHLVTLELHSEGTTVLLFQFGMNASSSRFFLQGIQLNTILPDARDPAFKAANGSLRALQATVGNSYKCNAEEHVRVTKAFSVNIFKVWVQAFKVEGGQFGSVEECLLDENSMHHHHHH

T3: mLAMP1_hseq6_ΔGYQTI (mouse; human, UniProt P11438 25-369)
T3 construct: on cells; numbering read as for pXL6041; also called pXL6047; not shown: murine transmembrane domain and cytoplasmic tail with GYQTI replaced by 5 Ala
T3 chain: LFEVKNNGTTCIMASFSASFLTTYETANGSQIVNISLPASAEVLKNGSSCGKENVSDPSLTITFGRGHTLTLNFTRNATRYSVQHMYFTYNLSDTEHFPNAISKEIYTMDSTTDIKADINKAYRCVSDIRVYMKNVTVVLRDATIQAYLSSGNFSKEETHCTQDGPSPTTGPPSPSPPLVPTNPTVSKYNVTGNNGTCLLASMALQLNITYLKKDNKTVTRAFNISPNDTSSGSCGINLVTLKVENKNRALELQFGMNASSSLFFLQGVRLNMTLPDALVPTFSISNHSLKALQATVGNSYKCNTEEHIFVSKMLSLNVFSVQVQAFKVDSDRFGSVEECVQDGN

T4: mLAMP1_hseq11_ΔGYQTI (mouse; human, UniProt P11438 25-369)
T4 construct: on cells; numbering read as for pXL6041; also called pXL6048; not shown: murine transmembrane domain and cytoplasmic tail with GYQTI replaced by 5 Ala
T4 chain: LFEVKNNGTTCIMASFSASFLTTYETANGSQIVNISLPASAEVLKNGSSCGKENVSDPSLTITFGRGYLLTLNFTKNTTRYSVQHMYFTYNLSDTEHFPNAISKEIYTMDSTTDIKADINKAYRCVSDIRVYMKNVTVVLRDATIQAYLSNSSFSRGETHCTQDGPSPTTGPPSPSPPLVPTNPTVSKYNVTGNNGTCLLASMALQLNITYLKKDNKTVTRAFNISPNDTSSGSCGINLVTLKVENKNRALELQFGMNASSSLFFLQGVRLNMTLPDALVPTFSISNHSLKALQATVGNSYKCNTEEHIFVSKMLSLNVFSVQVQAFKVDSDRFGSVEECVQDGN

T5: human LAMP1 at the cell surface (human, UniProt P11279 29-417)
T5 construct: native on tumour cells (PDX, Colo205, SW480, LS174T) or from the cloned CDS NM_005561.3 in HEK293 and HCT116; signal peptide 1-28 left out; also called huLAMP1; full length human LAMP1
T5 sequence: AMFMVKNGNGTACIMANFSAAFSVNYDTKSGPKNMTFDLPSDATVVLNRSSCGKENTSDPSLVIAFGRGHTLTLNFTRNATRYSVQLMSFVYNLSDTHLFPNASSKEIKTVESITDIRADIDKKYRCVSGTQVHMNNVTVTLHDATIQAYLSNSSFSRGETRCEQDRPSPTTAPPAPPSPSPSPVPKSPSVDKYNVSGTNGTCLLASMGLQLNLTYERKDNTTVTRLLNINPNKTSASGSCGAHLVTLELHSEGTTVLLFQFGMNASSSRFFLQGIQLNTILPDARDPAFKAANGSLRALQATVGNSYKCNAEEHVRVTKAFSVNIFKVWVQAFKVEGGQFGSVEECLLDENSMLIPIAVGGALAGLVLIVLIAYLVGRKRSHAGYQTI


Assays:
[1] = biological target: T1, mLAMP1::histag; assay: ELISA
[2] = biological target: T2, LAMP1::histag; assay: ELISA on recombinant human LAMP1
[3] = biological target: T6, LAMP1_mseq1_ΔGYQTI (mouse; human); assay: flow cytometry, transfected 293-F cells
T6 construct: on cells; also called pXL6012
T6 sequence (P11279 other isoform, or with tags, fused parts or gaps mutant): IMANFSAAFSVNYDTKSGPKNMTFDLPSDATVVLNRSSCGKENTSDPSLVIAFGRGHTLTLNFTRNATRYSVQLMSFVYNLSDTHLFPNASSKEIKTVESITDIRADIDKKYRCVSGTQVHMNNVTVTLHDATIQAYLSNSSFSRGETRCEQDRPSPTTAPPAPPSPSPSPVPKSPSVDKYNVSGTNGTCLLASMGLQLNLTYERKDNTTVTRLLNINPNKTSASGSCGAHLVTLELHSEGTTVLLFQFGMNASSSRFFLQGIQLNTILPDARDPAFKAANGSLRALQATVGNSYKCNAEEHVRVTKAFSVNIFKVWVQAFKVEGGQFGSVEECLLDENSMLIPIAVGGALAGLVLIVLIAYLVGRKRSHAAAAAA

[4] = biological target: T3, mLAMP1_hseq6_ΔGYQTI; assay: flow cytometry, transfected 293-F cells, experiment 1
[5] = biological target: T4, mLAMP1_hseq11_ΔGYQTI; assay: as above
[6] = biological target: T5, human LAMP1 at the cell surface; assay: flow cytometry, dissociated CR-IGR-034P colon PDX cells
Method: Advanced human primary colon tumor CR-IGR-034P was obtained from Patient-derived xenograft in mice. Tumor CR-IGR-034P was enzymatically dissociated using collagenase Type IV (Invitrogen; #17104-019) and deoxyribonuclease I (Invitrogen; #18047-019) for 1 h at 4° C. Cell viability was estimated by Viacount application using Guava® easyCyte™ 8HT Flow Cytometry System. […] 100 μL/well of goat anti-mouse IgG conjugated with Alexa647 (Invitrogen; # A2135) or goat anti-human IgG conjugated with Alexa488 (Invitrogen; # A11013) was added for 45 min at 4° C. and washed three times with PBS 1% BSA. The antibody binding was evaluated after centrifugation and resuspension of cells by adding 200 μl/well PBS 1% BSA and read using Guava® easyCyte™ 8HT Flow Cytometry System. EC50 values were estimated using BIOST@T-SPEED software.

| binding result [1] | EC50 [2] | mean fluorescence [3] | binding result [4] | mean fluorescence [4] | binding result [5] | mean fluorescence [5] | EC50 [6] | Binder |
| --- | --- | --- | --- | --- | --- | --- | --- | --- |
| no binding | 0.18 nM | 1030 | no binding | 7 | no binding | 6 |  | MAb1 (antibody, mouse IgG2a, kappa, murine monoclonal IgG, kappa, from hybridoma; also called murine MAb1) heavy: QVQLQQSGAELVKPGASVKMSCKASGYIFTNYNIHWVKKSPGQGLEWIGAIYPGNGDAPYSQKFKDKATLTADKSSSTTYMQLSRLTSEDSAVYYCVRANWDVAFAYWGQGTLVSVSAAKTTAPSVYPLAPVCGDTTGSSVTLGCLVKGYFPEPVTLTWNSGSLSSGVHTFPAVLQSDLYTLSSSVTVTSSTWPSQSITCNVAHPASSTKVDKKIEPRGPTIKPCPPCKCPAPNLLGGPSVFIFPPKIKDVLMISLSPIVTCVVVDVSEDDPDVQISWFVNNVEVHTAQTQTHREDYNSTLRVVSALPIQHQDWMSGKEFKCKVNNKDLPAPIERTISKPKGSVRAPQVYVLPPPEEEMTKKQVTLTCMVTDFMPEDIYVEWTNNGKTELNYKNTEPVLDSDGSYFMYSKLRVEKKNWVERNSYSCSVVHEGLHNHHTTKSFSRTPGK light: DIQMTQSPPSLSASLGGKVTITCKASQDIDRYMAWYQDKPGKGPRLLIHDTSTLQPGIPSRFSGSGSGRDYSFSISNLEPEDIATYYCLQYDNLWTFGGGTKLEIKRADAAPTVSIFPPSSEQLTSGGASVVCFLNNFYPKDINVKWKIDGSERQNGVLNSWTDQDSKDSTYSMSSTLTLTKDEYERHNSYTCEATHKTSTSPIVKSFNRNEC |
| no binding | 0.25 nM | 105 | no binding | 25 | no binding | 28 | 14 nM | MAb2 (antibody, mouse IgG1, kappa, murine monoclonal IgG, kappa, from hybridoma; also called murine MAb2) heavy: QVQLQQSAAELARPGASVKMSCKASGYTFTSYTMHWVKQRPGQGLEWIGYFNPSSGYPEYNQKFKDKTTLTADKSSNTAFIQLNSLTSEDSAVYYCSRGYYYGSRGYALDFWGQGASVTVSSAKTTPPSVYPLAPGSAAQTNSMVTLGCLVKGYFPEPVTVTWNSGSLSSGVHTFPAVLQSDLYTLSSSVTVPSSTWPSETVTCNVAHPASSTKVDKKIVPRDCGCKPCICTVPEVSSVFIFPPKPKDVLTITLTPKVTCVVVDISKDDPEVQFSWFVDDVEVHTAQTQPREEQFNSTFRSVSELPIMHQDWLNGKEFKCRVNSAAFPAPIEKTISKTKGRPKAPQVYTIPPPKEQMAKDKVSLTCMITDFFPEDITVEWQWNGQPAENYKNTQPIMDTDGSYFVYSKLNVQKSNWEAGNTFTCSVLHEGLHNHHTEKSLSHSPGK light: NIVLTQSPVSLAVSLGQRATISCRASESVDINGNTFMHWYQQKPGQSPKLVIYAASNIESGVPARFSGSGSSTDFTFTIDPVEADDVATYYCQQNIEDPWTFGGGTKVEIKRADAAPTVSIFPPSSEQLTSGGASVVCFLNNFYPKDINVKWKIDGSERQNGVLNSWTDQDSKDSTYSMSSTLTLTKDEYERHNSYTCEATHKTSTSPIVKSFNRNEC |
|  |  |  |  |  |  |  | 6 nM | MAb3 (antibody, V domains shown, murine monoclonal IgG, kappa, from hybridoma; also called murine MAb3) VH: QIQLVQSGPELKKPGETVKISCKASGYIFTNYGMNWVKQAPGKGLKWMGWINTYTGESRYADDFKGRFALSLETSASTAYLQINNLENEDMATYFCAREDYYGNSPWFFDVWGAGTTVTVSS VL: DIQMTQTTSSLSASLGDRVTISCNASQGINKYLNWYQQKPDGTVKLLIYYTSTLHSGVPSRFSGSGSGTDYSLTINNLEPEDIATYYCQQYTKLPFTFGSGTKLEIK |
